According to patent US11464853B2, “Amino acid and peptide conjugates and conjugation process” (Auckland UniServices Limited, priority 2016, dated 2022):
“Also recorded” adds a separate entry of the source. Where no end group is shown, it is not given here. [ ]: non-standard residue; d: D form.

Experiments:
Format in all cases: cell-based
[1] = molecular target: T1, murine TLR2 (HEK-Blue™-mTLR2 cells) (Mus musculus, UniProt Q9QUN7); assay: TLR2 agonism in HEK-Blue-mTLR2 cells (SEAP reporter); conditions: for TLR2 agonism for mTLR2: Example 8, FIG. 6A, dilution series 10^−6 M to 10^−11 M; for TLR2 agonism for mTLR2 / SEAP production / TLR2 agonism in HEK-Blue™-mTLR2: result in words; for SEAP production / TLR2 agonism in HEK-Blue™-mTLR2: Example 2, FIG. 4A-4C, 10-12 h incubation, absorbance 635 nm
T1 construct: host or cells: HEK-Blue-mTLR2 (HEK cells co-transfected with murine TLR2 and the SEAP reporter)
T1 sequence (Q9QUN7 25-784): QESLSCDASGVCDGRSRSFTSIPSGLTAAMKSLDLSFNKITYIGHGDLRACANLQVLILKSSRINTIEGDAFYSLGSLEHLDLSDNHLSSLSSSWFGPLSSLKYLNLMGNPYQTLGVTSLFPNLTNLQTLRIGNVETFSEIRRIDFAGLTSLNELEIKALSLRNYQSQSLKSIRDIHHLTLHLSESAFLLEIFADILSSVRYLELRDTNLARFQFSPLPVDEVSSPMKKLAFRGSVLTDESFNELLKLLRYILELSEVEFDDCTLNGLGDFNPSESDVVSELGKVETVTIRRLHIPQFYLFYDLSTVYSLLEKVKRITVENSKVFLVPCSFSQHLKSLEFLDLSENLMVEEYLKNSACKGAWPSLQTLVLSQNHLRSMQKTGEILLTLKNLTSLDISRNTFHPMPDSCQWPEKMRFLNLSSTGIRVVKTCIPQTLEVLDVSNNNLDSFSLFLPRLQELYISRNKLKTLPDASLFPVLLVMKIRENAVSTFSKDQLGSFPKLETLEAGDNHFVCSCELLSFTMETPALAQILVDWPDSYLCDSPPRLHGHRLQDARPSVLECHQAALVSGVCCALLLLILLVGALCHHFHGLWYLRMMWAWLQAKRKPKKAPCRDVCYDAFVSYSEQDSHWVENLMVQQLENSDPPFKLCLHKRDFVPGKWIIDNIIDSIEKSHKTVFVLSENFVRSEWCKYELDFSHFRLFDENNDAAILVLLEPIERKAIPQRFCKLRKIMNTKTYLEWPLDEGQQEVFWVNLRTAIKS
Method: (§1) HEK-Blue™ Detection medium, HEK-Blue™-hTLR2 and HEK-Blue™-mTLR2 were purchased from Invivogen. These HEK-Blue cells were produced by co-transfection of both reporter gene SEAP (secreted embryonic alkaline phosphatase) and either human or murine TLR2, respectively. The SEAP reporter gene is under the control of the IFN-B minimal promoter fused to five AP-1 and five NFkB binding sites. Cells were cultured according to manufacturer's instructions.
(§2) On the day of the assay, TLR agonists 510, 520, 530, 540, 550 or PBS (negative control) were added at the indicated concentrations in 20 μl volume of endotoxin free water in a 96-well plate. HEK-Blue™-hTLR2 or […] were resuspended at ˜2.78×10^5 cells/ml in HEK-Blue™ Detection medium and 180 μl of the cell suspension added to each well (˜5×10^4 cells). Cells were incubated for 10-12 h at 37° C. in 5% CO2. SEAP expression was quantified using an EnSpire plate reader (PerkinElmer) at […]. Data presented as mean+/−SD ABS or mABS (635 nm) values for triplicate wells following background subtraction.
(§3) The TLR2 agonism of the agonists in Table 4 were investigated in HEK-Blue™-mTLR2 (FIG. 6A) and HEK-Blue™-hTLR2 (FIG. 6B) cells by following a procedure analogous to that described in section 2.1 of Example 2 across a 6-log10 dilution series (10^−6 M to 10^−11 M). (R/S)-Pam-1-Cys-NH2 was tested only at 10^−6 and 10^−9 M. Data presented as mean+/−SD absorbance (635 nm) values for triplicate wells following background subtraction, with dotted lines representing absorbance in wells treated with media only.

[2] = molecular target: T2, human TLR2 (HEK-Blue™-hTLR2 cells) (Homo sapiens, UniProt O60603); assay: TLR2 agonism in HEK-Blue-hTLR2 cells (SEAP reporter); conditions: for SEAP production / TLR2 agonism in HEK-Blue™-hTLR2: Example 2, FIG. 4A-4C, 10-12 h incubation, absorbance 635 nm
T2 construct: host or cells: HEK-Blue-hTLR2 (HEK cells co-transfected with human TLR2 and the SEAP reporter)
T2 sequence (O60603 21-784): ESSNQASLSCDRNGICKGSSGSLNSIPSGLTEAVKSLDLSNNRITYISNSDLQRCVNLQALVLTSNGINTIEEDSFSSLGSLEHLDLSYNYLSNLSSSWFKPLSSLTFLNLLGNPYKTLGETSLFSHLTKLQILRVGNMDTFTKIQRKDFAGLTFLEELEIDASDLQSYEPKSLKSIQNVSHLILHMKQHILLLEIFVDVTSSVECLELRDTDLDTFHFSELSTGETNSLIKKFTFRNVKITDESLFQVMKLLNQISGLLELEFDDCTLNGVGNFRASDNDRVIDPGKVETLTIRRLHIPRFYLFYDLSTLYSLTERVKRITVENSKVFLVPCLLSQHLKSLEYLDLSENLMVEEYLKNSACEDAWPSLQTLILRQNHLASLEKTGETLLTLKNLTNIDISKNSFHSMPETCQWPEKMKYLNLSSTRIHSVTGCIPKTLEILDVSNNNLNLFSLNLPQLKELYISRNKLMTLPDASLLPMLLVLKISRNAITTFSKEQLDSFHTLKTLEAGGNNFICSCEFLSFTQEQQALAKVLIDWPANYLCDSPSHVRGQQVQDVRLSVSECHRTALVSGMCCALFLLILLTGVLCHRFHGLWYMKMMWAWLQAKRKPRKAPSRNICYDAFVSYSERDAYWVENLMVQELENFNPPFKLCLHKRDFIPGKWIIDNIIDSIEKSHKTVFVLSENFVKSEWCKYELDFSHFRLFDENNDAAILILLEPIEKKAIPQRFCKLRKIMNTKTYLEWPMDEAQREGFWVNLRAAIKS
Method: as §1, §2, §3

[3] = tested on: CD8+ T cell clones with TLR2+ HLA-A2+ lymphoblastoid B-cell lines (LCL) as antigen-presenting cells; assay: Peptide processing and presentation to CD8+ T-cell clones by LCL (CD137 expression, flow cytometry); conditions: result in words
Method: Epstein-Barr Virus-transformed TLR2+ HLA-A2+ lymphoblastoid B-cell lines (LCL) were used as antigen-presenting cells in all peptide processing and presentation assays. LCL were incubated for 16 h in RF10+peptide/construct as indicated at desired concentrations. Untreated LCL were incubated in RF10 only. LCL/construct incubation was performed in 96 well plates (U-bottom, BD Biosciences) or in 48wp (flat bottom, BD Biosciences) depending of the nature of the assay and the numbers of LCL required per treatment. Following incubation, LCL were thoroughly washed with RPMI 1640 to remove unbound construct/peptide.
To enable flow cytometric detection, CD8+ T cell clones were pre-stained with 0.5 μM CellTrace™ Violet (“CTV”) (Life Technologies™) following manufacturer's protocols prior to seeding into APC wells. Loaded, washed LCL and CTV-stained T cell clones were seeded in 96 well plate wells (U-bottom) at a ratio of 4:1 (LCL: T cell) in duplicate (typical numbers of cells used were 1.25×10^4 cells/ml T cells and 5×10^4 cells/ml APC). Following seeding, plates were gently centrifuged (≤300×g, 3 minutes) to allow immediate interaction, and incubated for 26 hours in a standard cell culture incubator.
To detect T cell activation, samples were stained with anti-CD8:AlexaFluor700 and anti-CD137:PE antibodies (both Biolegend). […]

(R)-Pam2Cys-SKKKK-NH2: enantiopure epimeric TLR agonist of Table 4 ([(R)‑Pam2Cys]SKKKK-NH2; also: (R) epimer, enantiopure) [reference compound]
TLR2 agonism for mTLR2 [1]: increase in NKκB production at 10^−10 and 10^−11 M only

homoPam2Cys(NH2)-SKKKK: Lipopeptide TLR2 agonist of the invention: Homo-Pam2Cys(NH2) lipid component with SKKKK linker, no epitope peptide ([homoPam2Cys(NH2)]SKKKK)
SEAP production / TLR2 agonism in HEK-Blue™-mTLR2 [1]: equivalent SEAP production to Pam3Cys-SKKKK; also recorded: demonstrably more potent TLR2 agonists than Pam1CYs-SKKKK; also recorded: active in both HEK-Blue™-mTLR2 and -hTLR2 to sub-nM concentrations
SEAP production / TLR2 agonism in HEK-Blue™-hTLR2 ([2]; result in words): comparable production in HEK-Blue™-hTLR2; also recorded: demonstrably more potent TLR2 agonists than Pam1CYs-SKKKK; also recorded: active in both HEK-Blue™-mTLR2 and -hTLR2 to sub-nM concentrations

Pam1Cys-SKKKK-NH2: TLR agonist of Table 4 ([Pam1Cys]SKKKK-NH2) [reference compound]
TLR2 agonism for mTLR2 [1]: no agonism at any concentration for mTLR2
TLR2 agonism for hTLR2 ([2]; Example 8, FIG. 6B, dilution series 10^−6 M to 10^−11 M, result in words): agonism for hTLR2 at 10^−6 M but not 10^−9 M

521: Pam2Cys-SKKKK conjugated to peptide NLVPMVATVK(Ac) (Pam2Cys-SKKKKNLVPMVATVK(Ac)) [compound 521, reference compound]
SEAP production / TLR2 agonism in HEK-Blue™-mTLR2 [1]: relative loss of agonism when compared to unconjugated Pam3Cys-SKKKK
SEAP production / TLR2 agonism in HEK-Blue™-hTLR2 ([2]; result in words): relative loss of agonism when compared to unconjugated Pam3Cys-SKKKK

Pam2Cys-SKKKK: known TLR2 agonist, prepared in-house; lipid/linker component Pam2Cys-SKKKK without peptide ([Pam2Cys]SKKKK) [reference compound]
SEAP production / TLR2 agonism in HEK-Blue™-mTLR2 [1]: most potent agonist tested
SEAP production / TLR2 agonism in HEK-Blue™-hTLR2 ([2]; result in words): most potent agonist tested

552: Homo-Pam2Cys(NHAc)-SKKKK conjugated to peptide VPGVLLKEFTVSGNILTIRLTAADHR (homo-Pam2Cys(NHAc)-SKKKK conjugate) [compound 552]
T-cell clone activation (live clonal cells positive for CD137) ([3]; VPG-bearing constructs and VPG long peptide, FIG. 4E, epitope EFTVSGNIL): superior T-cell clone activation to VPG-bearing-Pam1Cys-SKKKK (512); also recorded: superior to VPG peptide alone (500)

(R)-Pam3Cys: enantiopure epimeric TLR agonist of Table 4 (CSKKKK) [reference compound]
NFκB production maintained at lower concentration than paired (S)-version ([1]; mTLR2, (R)- vs (S)-epimer): ≥ 10 fold
NFκB production maintained at lower concentration than paired (S)-version ([2]; hTLR2, (R)- vs (S)-epimer): ≥ 10 fold

Pam1Cys-SKKKK: known TLR2 agonist, prepared in-house; lipid/linker component Pam1Cys-SKKKK without peptide ([Pam1Cys]SKKKK) [reference compound]
SEAP production / TLR2 agonism in HEK-Blue™-mTLR2 [1]: not active in HEK-Blue™-mTLR2 at sub-μM concentrations

homoPam2Cys(NHAc)-SKKKK: Lipopeptide TLR2 agonist of the invention: Homo-Pam2Cys(NHAc) lipid component with SKKKK linker, no epitope peptide ([homoPam2Cys(NHAc)]SKKKK)
SEAP production / TLR2 agonism in HEK-Blue™-mTLR2 [1]: equivalent SEAP production to the most potent agonist tested (Pam2Cys-SKKKK) at ≥1 nM and comparable production at sub-nM concentrations; also recorded: demonstrably more potent agonist than Pam3Cys-SKKKK or homoPam2Cys(NH2)-SKKKK; also recorded: demonstrably more potent TLR2 agonists than Pam1CYs-SKKKK; also recorded: active in both HEK-Blue™-mTLR2 and -hTLR2 to sub-nM concentrations
SEAP production / TLR2 agonism in HEK-Blue™-hTLR2 ([2]; result in words): equivalent SEAP production to the most potent agonist tested (Pam2Cys-SKKKK) at ≥1 nM and comparable production at sub-nM concentrations; also recorded: demonstrably more potent agonist than Pam3Cys-SKKKK or homoPam2Cys(NH2)-SKKKK; also recorded: demonstrably more potent TLR2 agonists than Pam1CYs-SKKKK; also recorded: active in both HEK-Blue™-mTLR2 and -hTLR2 to sub-nM concentrations

551: Homo-Pam2Cys(NHAc)-SKKKK conjugated to peptide NLVPMVATVK(Ac) ({homoPam2Cys(NHAc)}-SKKKKNLVPMVATVK(Ac); also: conjugated to lipopeptide, linkage not given here) [compound 551]
T-cell clone activation (live clonal cells positive for CD137) ([3]; NLV-bearing constructs, FIG. 4D, LCL loaded 16 h, co-culture 26 h): comparable T-cell clone activation to NLV-bearing-Pam2Cys-SKKKK (521), and superior T-cell clone activation to NLV-bearing-Pam1Cys-SKKKK (511)
SEAP production / TLR2 agonism in HEK-Blue™-mTLR2 [1]: did not result in any loss of agonism, and homoPam2Cys(NHAc)-SKKKK-NLVPMVATVK(Ac) remained a more potent agonist than Pam3Cys-SKKKK, particularly at nM concentrations
SEAP production / TLR2 agonism in HEK-Blue™-hTLR2 ([2]; result in words): did not result in any loss of agonism, and homoPam2Cys(NHAc)-SKKKK-NLVPMVATVK(Ac) remained a more potent agonist than Pam3Cys-SKKKK, particularly at nM concentrations
